# Measured values taken from the RNAGym collection of RNA variant scans (doi:10.1021/acssynbio.7b00057).
# B1: Pistol ribozyme (parent)
# chain: GGGUCGUUGUUCCAUAAUCGCGUGGAUAUGGCACGCAAGUUUCUACCGGGCACCGUAAAUGUCCGACUGGAGCCGUUCGGGCGGCUAUAAACAGACCUCAGGCCCGAAGCGUGGCGGCACCUGCCGCCGGUGGUAAAAAAGAUCGGAAGAGCACACGUCU
# Variants of: B1
# Experiment: aptazyme ON/OFF ratio, guanine; higher = stronger switching; co-transcriptional cleavage with and without guanine
row,Variant,aptazyme ON/OFF ratio
1,GGGUCGGAAUCAAAUAAUCGCGUGGAUAUGGCACGCAAGUUUCUACCGGGCACCGUAAAUGUCCGACUGGAGCCGUUCGGGCGGCUAUAAACAGACCUCAGGCCCGAAGCGUGGCGGCACCUGCCGCCGGUGGUAAAAAAGAUCGGAAGAGCACACGUCU,1.19
2,GGGUCGGAAUCAGAUAAUCGCGUGGAUAUGGCACGCAAGUUUCUACCGGGCACCGUAAAUGUCCGACUGGAGCCGUUCGGGCGGCUAUAAACAGACCUCAGGCCCGAAGCGUGGCGGCACCUGCCGCCGGUGGUAAAAAAGAUCGGAAGAGCACACGUCU,1.12
3,GGGUCGGAAUCAUAUAAUCGCGUGGAUAUGGCACGCAAGUUUCUACCGGGCACCGUAAAUGUCCGACUGGAGCCGUUCGGGCGGCUAUAAACAGACCUCAGGCCCGAAGCGUGGCGGCACCUGCCGCCGGUGGUAAAAAAGAUCGGAAGAGCACACGUCU,1.1
4,GGGUCGGAAUAGUAUAAUCGCGUGGAUAUGGCACGCAAGUUUCUACCGGGCACCGUAAAUGUCCGACUGGAGCCGUUCGGGCGGCUAUAAACAGACCUCAGGCCCGAAGCGUGGCGGCACCUGCCGCCGGUGGUAAAAAAGAUCGGAAGAGCACACGUCU,1.14
5,GGGUCGGAAUAGGAUAAUCGCGUGGAUAUGGCACGCAAGUUUCUACCGGGCACCGUAAAUGUCCGACUGGAGCCGUUCGGGCGGCUAUAAACAGACCUCAGGCCCGAAGCGUGGCGGCACCUGCCGCCGGUGGUAAAAAAGAUCGGAAGAGCACACGUCU,1.09
6,GGGUCGGAAUAGAAUAAUCGCGUGGAUAUGGCACGCAAGUUUCUACCGGGCACCGUAAAUGUCCGACUGGAGCCGUUCGGGCGGCUAUAAACAGACCUCAGGCCCGAAGCGUGGCGGCACCUGCCGCCGGUGGUAAAAAAGAUCGGAAGAGCACACGUCU,1.17
7,GGGUCGGAAUAUCAUAAUCGCGUGGAUAUGGCACGCAAGUUUCUACCGGGCACCGUAAAUGUCCGACUGGAGCCGUUCGGGCGGCUAUAAACAGACCUCAGGCCCGAAGCGUGGCGGCACCUGCCGCCGGUGGUAAAAAAGAUCGGAAGAGCACACGUCU,1.25
8,GGGUCGGAAUAGCAUAAUCGCGUGGAUAUGGCACGCAAGUUUCUACCGGGCACCGUAAAUGUCCGACUGGAGCCGUUCGGGCGGCUAUAAACAGACCUCAGGCCCGAAGCGUGGCGGCACCUGCCGCCGGUGGUAAAAAAGAUCGGAAGAGCACACGUCU,1.24
9,GGGUCGGAAUCACAUAAUCGCGUGGAUAUGGCACGCAAGUUUCUACCGGGCACCGUAAAUGUCCGACUGGAGCCGUUCGGGCGGCUAUAAACAGACCUCAGGCCCGAAGCGUGGCGGCACCUGCCGCCGGUGGUAAAAAAGAUCGGAAGAGCACACGUCU,1.17
10,GGGUCGGAAUCGCAUAAUCGCGUGGAUAUGGCACGCAAGUUUCUACCGGGCACCGUAAAUGUCCGACUGGAGCCGUUCGGGCGGCUAUAAACAGACCUCAGGCCCGAAGCGUGGCGGCACCUGCCGCCGGUGGUAAAAAAGAUCGGAAGAGCACACGUCU,1.21
11,GGGUCGGAAUACAAUAAUCGCGUGGAUAUGGCACGCAAGUUUCUACCGGGCACCGUAAAUGUCCGACUGGAGCCGUUCGGGCGGCUAUAAACAGACCUCAGGCCCGAAGCGUGGCGGCACCUGCCGCCGGUGGUAAAAAAGAUCGGAAGAGCACACGUCU,1.06
12,GGGUCGGAAUACGAUAAUCGCGUGGAUAUGGCACGCAAGUUUCUACCGGGCACCGUAAAUGUCCGACUGGAGCCGUUCGGGCGGCUAUAAACAGACCUCAGGCCCGAAGCGUGGCGGCACCUGCCGCCGGUGGUAAAAAAGAUCGGAAGAGCACACGUCU,1.02
13,GGGUCGGAAUACUAUAAUCGCGUGGAUAUGGCACGCAAGUUUCUACCGGGCACCGUAAAUGUCCGACUGGAGCCGUUCGGGCGGCUAUAAACAGACCUCAGGCCCGAAGCGUGGCGGCACCUGCCGCCGGUGGUAAAAAAGAUCGGAAGAGCACACGUCU,1.12
14,GGGUCGGAAUCCCAUAAUCGCGUGGAUAUGGCACGCAAGUUUCUACCGGGCACCGUAAAUGUCCGACUGGAGCCGUUCGGGCGGCUAUAAACAGACCUCAGGCCCGAAGCGUGGCGGCACCUGCCGCCGGUGGUAAAAAAGAUCGGAAGAGCACACGUCU,1.03
15,GGGUCGGAAUAUUAUAAUCGCGUGGAUAUGGCACGCAAGUUUCUACCGGGCACCGUAAAUGUCCGACUGGAGCCGUUCGGGCGGCUAUAAACAGACCUCAGGCCCGAAGCGUGGCGGCACCUGCCGCCGGUGGUAAAAAAGAUCGGAAGAGCACACGUCU,1.06
16,GGGUCGGAAUAUGAUAAUCGCGUGGAUAUGGCACGCAAGUUUCUACCGGGCACCGUAAAUGUCCGACUGGAGCCGUUCGGGCGGCUAUAAACAGACCUCAGGCCCGAAGCGUGGCGGCACCUGCCGCCGGUGGUAAAAAAGAUCGGAAGAGCACACGUCU,1.04
17,GGGUCGGAAUAUAAUAAUCGCGUGGAUAUGGCACGCAAGUUUCUACCGGGCACCGUAAAUGUCCGACUGGAGCCGUUCGGGCGGCUAUAAACAGACCUCAGGCCCGAAGCGUGGCGGCACCUGCCGCCGGUGGUAAAAAAGAUCGGAAGAGCACACGUCU,1.17
18,GGGUCGGAAUAAUAUAAUCGCGUGGAUAUGGCACGCAAGUUUCUACCGGGCACCGUAAAUGUCCGACUGGAGCCGUUCGGGCGGCUAUAAACAGACCUCAGGCCCGAAGCGUGGCGGCACCUGCCGCCGGUGGUAAAAAAGAUCGGAAGAGCACACGUCU,1.21
